Measurements published in article PMC2196380.

Target: HLA-DM (DMα/DMβ heterodimer) (human (endogenous in B-LCL)) (UniProt P28067)
Test: co-IP

Chain of UniProt P28067 (P28067 27-261, chain 1 of 2): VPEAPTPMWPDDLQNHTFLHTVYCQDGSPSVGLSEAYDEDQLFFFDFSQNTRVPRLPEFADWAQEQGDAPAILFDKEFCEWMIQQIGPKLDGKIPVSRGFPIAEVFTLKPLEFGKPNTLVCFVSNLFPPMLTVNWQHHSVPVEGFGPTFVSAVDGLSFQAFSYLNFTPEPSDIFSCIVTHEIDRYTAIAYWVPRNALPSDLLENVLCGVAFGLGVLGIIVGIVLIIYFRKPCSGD
Chain of UniProt P28067 (P28068 19-263, chain 2 of 2, further chain): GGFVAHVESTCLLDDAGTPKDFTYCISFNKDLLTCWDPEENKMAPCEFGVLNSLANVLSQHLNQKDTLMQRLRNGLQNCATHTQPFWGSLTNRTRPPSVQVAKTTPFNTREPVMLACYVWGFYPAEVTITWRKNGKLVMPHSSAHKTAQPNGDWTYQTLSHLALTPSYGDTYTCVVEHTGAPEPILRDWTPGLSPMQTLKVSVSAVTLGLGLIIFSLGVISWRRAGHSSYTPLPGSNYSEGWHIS

percent coprecipitated with DM: 14%
Substance: wild-type HLA-DR3 αβCLIP complexes from T2.DR3 cells (from UniProt P01903 26-254) (peptide-MHC)
